This note sets out measurements from patent US20220227882A1 (TRUSTEES OF TUFTS COLLEGE, published 2022).

One assay has as its target T1, A462S (Homo sapiens, UniProt P78325).
T1 construct: expressed on HEK293 cells; also called human ADAM8 point mutant A462S
T1 sequence (ADAM8, looked up): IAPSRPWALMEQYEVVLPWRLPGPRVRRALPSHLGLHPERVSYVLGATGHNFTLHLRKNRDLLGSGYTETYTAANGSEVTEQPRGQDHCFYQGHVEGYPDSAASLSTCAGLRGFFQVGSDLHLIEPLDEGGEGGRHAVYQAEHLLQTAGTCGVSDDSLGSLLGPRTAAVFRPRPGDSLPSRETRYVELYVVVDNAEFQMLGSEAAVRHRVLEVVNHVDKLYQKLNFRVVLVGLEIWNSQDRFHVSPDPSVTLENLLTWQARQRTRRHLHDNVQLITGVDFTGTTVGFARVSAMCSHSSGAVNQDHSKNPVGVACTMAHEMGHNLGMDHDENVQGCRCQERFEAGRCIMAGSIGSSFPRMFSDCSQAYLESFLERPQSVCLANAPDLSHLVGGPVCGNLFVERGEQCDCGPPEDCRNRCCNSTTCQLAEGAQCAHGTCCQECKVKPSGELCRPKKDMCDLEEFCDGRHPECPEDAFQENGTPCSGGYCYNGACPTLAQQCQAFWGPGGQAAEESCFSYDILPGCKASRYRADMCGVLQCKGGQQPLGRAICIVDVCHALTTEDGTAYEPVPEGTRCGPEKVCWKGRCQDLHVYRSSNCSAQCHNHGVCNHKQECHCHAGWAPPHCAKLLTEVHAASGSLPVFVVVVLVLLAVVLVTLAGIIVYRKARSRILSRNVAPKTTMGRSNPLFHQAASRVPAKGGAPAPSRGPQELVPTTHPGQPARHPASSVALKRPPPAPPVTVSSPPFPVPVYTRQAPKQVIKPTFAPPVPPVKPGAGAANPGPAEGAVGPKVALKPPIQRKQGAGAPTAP
Put plainly: high-throughput flow cytometry, HEK293 cells with mutant ADAM8, high stringency; range in parentheses. Here is the method: (§1) A variety of experimental parameters were optimized for high-throughput flow cytometry including blocking buffer, and primary and secondary antibody concentrations, to identify the optimal conditions for screening. Through these studies ADP2 and ADP13 were determined to be high affinity binding antibodies.
(§2) Thus, for these studies antigen-binding fragments (Fabs) of ADP2 and ADP13, which bind with lower affinity than the full antibody, were generated. In addition, higher binding stringency conditions were tested, such as increased pH, salinity, and temperature, and/or increased washing, to weaken binding sufficiently to allow identification of critical binding residues in flow cytometry. The final experimental flow cytometry conditions were: primary antibody incubation with ADP2 Fab (0.50 μg/ml), ADP13 Fab (5.00 μg/ml) and Control Ab (0.16 μg/ml) for 60 minutes in flow cytometry buffer containing 10% goat serum in PBS (Ca²⁺ and Mg²⁺ free). […] Samples were washed three times after primary antibody incubation and twice after secondary antibody incubation with PBS (Ca²⁺ and Mg′ free). Next, HEK293 cells expressing WT or mutated ADAM8 proteins or EV DNA were incubated with ADP2 or ADP13 Fabs or Control Ab at their optimal concentrations. Fab binding was detected using Alexa Fluor 488-conjugated secondary antibodies and mean cellular fluorescence determined using the Intellicyt iQue flow cytometry platform. […] This counter-screen strategy facilitates the exclusion of mutants that are locally misfolded or that have an expression defect. Binding of each test Fab to each mutant clone in the alanine scanning library was determined, in duplicate, by high-throughput flow cytometry.

The target of another assay is T2, Q447A (Homo sapiens, UniProt P78325).
T2 construct: expressed on HEK293 cells; also called human ADAM8 point mutant Q447A
T2 sequence (ADAM8, looked up): T1 sequence (ADAM8, looked up) with Q431A, S446A
Described as above. Here is the method: as §1, §2

Changes are numbered by the printed parent chain.

B1: ADP2 Fab (Fab, V domains shown)
VH: EVKLVESGGGLVQPGGSLSLSCAASGFSFPDYYMSWVRQPPGKALEWLGFIRDSANGYTTEYIASVKGRFTFSRDNSQSILYLQMNALRAEDSATYYCARYSRYYGMDYWGQGTSVTVSS
VL: SIVMTQTPKILLVSAGDRVTITCKASQTVNYDVAWYQQKPGQSPKPVIYFASNRYTGVPDRFTGSGFGTDFTFTISTVQAEDLAVYFCQQDYSAPWTFGGGTKLEIK
With B1, the “Binding Reactivity (% WT)” value with A462S is 50.1 % WT; with Q447A, 46.5 % WT.
